{"source": "patent US20190127447A1", "about": "(Ablynx, published 2019)", "target": "RSV F protein of the hRSV Memphis 37 strain (human respiratory syncytial virus …)", "test": "cell-based or functional assay"}
{"binder": "SEQ ID NO: 71 (VHH) DVQLVESGGGLVQAGGSLSISCAASGGSLSNYVLGWFRQAPGKEREFVAAINWRGDITIGPPNVEGRFTISRDNAKNTGYLQMNSLAPDDTAVYYCGAGTPLNPGAYIYDWSYDYWGRGTQVTVSSGGGGSGGGGSGGGGSEVQLVESGGGLVQAGGSLSISCAASGGSLSNYVLGWFRQAPGKEREFVAAINWRGDITIGPPNVEGRFTISRDNAKNTGYLQMNSLAPDDTAVYYCGAGTPLNPGAYIYDWSYDYWGRGTQVTVSSGGGGSGGGGSGGGGSEVQLVESGGGLVQAGGSLSISCAASGGSLSNYVLGWFRQAPGKEREFVAAINWRGDITIGPPNVEGRFTISRDNAKNTGYLQMNSLAPDDTAVYYCGAGTPLNPGAYIYDWSYDYWGRGTQVTVSS", "values": [{"measurement": "sensitivity in in vitro neutralization assays relative to RSV-B 18537", "result": 6, "unit": "fold"}]}
